Assay results taken from the supplement of paper PMC12042874.
± gives the uncertainty stated by the source.

Experiment: amyloid nucleation score (Sup35N fusion, yeast selection) (log enrichment); library NNK2; higher = more nucleation; inactive = no reads after selection
Summary of the method: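 Growth for 7 days at 30°C on medium lacking adenine and uracil followed a 24-hour induction with 100 μM copper sulfate of psi-negative yeast expressing peptides of 20 random codons fused to Sup35N. Input and output plasmid inserts were sequenced with Illumina, and sequences with under 100 input reads were excluded. Nucleation score is the DiMSum log enrichment of output over input reads, centred on the mode score of non-aggregating sequences.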

| Substance | amyloid nucleation score |
| --- | --- |
| VCGGVRYYLNTFYIKR | 7.566 ± 0.054 |
| ISLAINIAPLLLCTESTEWG | -0.133 ± 0.65 |
| SLGALNKFPRILIVVRYRVC | inactive |
| AMPSRDLITR | 2.52 ± 0.075 |
| NQGIKRRLFHNWLNRGRLLF | inactive |
| YPWLRIWCDRNDIEVGLVFA | -0.055 ± 0.79 |
| RQGFSVSSNRLGVFQSQEPG | -1.05 ± 0.78 |
| ALILECRVRSRS | 4.16 ± 0.12 |
| PMSDMFYFFGFECSRLIMSN | inactive |
| FNYPSLFTF | -1.01 ± 1.1 |
| FSSSYP | inactive |
| RTVTNEGTCFNGWLCYAREG | 10.15 ± 0.063 |
| MYCYSHDQCESLGQRSFGDT | 0.218 ± 0.8 |
| SHFGLDADWVEVPYYRFFRY | -0.8 ± 1 |
| VLFDGKPMEVFFWCLPEWVF | inactive |
| WTPVDVLCMIGMRSVCYINM | 1.79 ± 0.1 |
| RLLFSDCFLVFLPMGCFAFF | 3.69 ± 0.07 |
| GYSVH | -0.632 ± 1.1 |
| ALYETTVPLLVWLGA | 0.463 ± 0.24 |
| FVNLRVILH | 5.18 ± 0.052 |
| CGVFSLQCYHVDESTRCREF | 6.401 ± 0.061 |
| GGCCSLPLACNKKGCCYWVA | 1.84 ± 0.47 |

| Substance | amyloid nucleation score |
| --- | --- |
| IYSHESASWWMRRARSS | 1.55 ± 0.25 |
| GLLSCMPCRGINLLPSVIRR | 1.21 ± 0.61 |
| SHGAWTLFLSVIFCSAQYR | 4.06 ± 0.087 |
| RAQRLP | -0.241 ± 0.55 |
| KGPDITEHTITRGPEGNSRY | -0.17 ± 0.65 |
| RYFINFSSLCHQLDILWRCV | -1.03 ± 0.76 |
| AKPTRGSCSGT | 2.79 ± 0.12 |
| CDFAIPYYNGPYSQKFLMTS | -0.321 ± 0.8 |
| RGKSKYSRLGWPGNLEHKGL | 0.388 ± 0.46 |
| HFIKKGDYNKTTKYSPCNEL | -0.941 ± 0.45 |
| GSTVKSIVCDSVWS | 0.082 ± 0.65 |
| KESKLYLFLCFL | 7.832 ± 0.048 |
| RLVIGT | 2.41 ± 0.11 |
| GRCYIISCPESWHKPMYVAI | 0.142 ± 0.34 |
| GENSVLRSGNFKYKAWFCGG | -0.342 ± 1 |
| VPLEYSRVI | 2.15 ± 0.15 |
| IWYLLFMVDLVKCHTMKTNR | 0.686 ± 0.12 |
| CSGYSERAPRFCSDLIVCST | 0.574 ± 0.51 |
| CSMFSKLMVNSGLSSVLTVM | 0.047 ± 0.28 |
| ECYETRTSMEY | -0.102 ± 0.56 |
| SGFMLKWCKY | 0.874 ± 0.55 |
| GVDLGIRRAFT | 0.578 ± 0.62 |

| Substance | amyloid nucleation score |
| --- | --- |
| LNMVFW | inactive |
| SYFGDFERFSFSCDHER | -0.471 ± 0.61 |
| SGRPHDCPHWRFFRSIKGLI | -0.676 ± 0.48 |
| YCFVDALSCDLPNHEHMDVF | inactive |
| VWWSEVTAVSNCQRVSYARP | 2.94 ± 0.075 |
| ILCLF | 0.909 ± 0.45 |
| ENLYGFWYLTRCRMF | -0.096 ± 0.39 |
| SHGWGTAAVWNIAVCRRSLG | 0.129 ± 0.39 |
| SDFIAGVKLSRNFDGRG | -0.097 ± 1.1 |
| MENGHCYFCQCTKSH | 2.85 ± 0.1 |
| MSLSLQKYFLWRPGRAPVVR | -0.03 ± 0.63 |
| RIRHCGQFYSMHGKRRIATH | 1.17 ± 0.34 |
| SFFWPPHLKRVLFLQLRTIC | 0.777 ± 0.44 |
| TLVCWCLIFNVDKPFCVLML | inactive |
| LSPLIAAHSTERVYWY | 0.262 ± 0.46 |
| HFENLTHYTIVSTFFSLGVP | inactive |
| YLNYNIMS | inactive |
| CTSMGA | -0.291 ± 0.79 |
| RGDHDCW | 0.77 ± 0.32 |
| IDGKARDYMAGDARMNRF | -1.45 ± 0.75 |
| SGNSENSTLVKNYFSTLSLS | -0.124 ± 0.5 |
| MWSVLNHLRSDSDFSNA | 1.13 ± 0.61 |

| Substance | amyloid nucleation score |
| --- | --- |
| GALVR | -1.08 ± 0.55 |
| TDWVW | 0.593 ± 0.2 |
| FWKNYQIMMRMCDKHVIEDV | 2.95 ± 0.11 |
| RDSVCMTRLDMGLDCEWVFG | 1.57 ± 0.36 |
| SGYFFPRL | -0.73 ± 1.1 |
| CASVSQGPKQLLPPNVTGLY | -0.176 ± 0.45 |
| GKILVAFLWPISCVR | 0.037 ± 0.65 |
| NLARYLLRKELARYFMSQ | -0.578 ± 0.41 |
| AITSLYSRSLFLVLTCTVCF | 5.683 ± 0.055 |
| SYENTSV | 0.376 ± 0.66 |
| IYDNMVDKFVSKGRCAVSPD | -0.066 ± 0.55 |
| YDQVSFAL | -0.584 ± 0.76 |
| LQCIGNYSDWGSMVGREQSK | -0.066 ± 1 |
| GWRCSNPPASIKWCATLYSV | 2.08 ± 0.2 |
| GMEINAYY | 0.048 ± 0.65 |
| FMQICNFIC | 8.012 ± 0.07 |
| SALRSSEEFSAFCVE | -0.084 ± 0.74 |
| VNIRGTHVLVRVYSQGRNRA | 8.528 ± 0.062 |
| TCRHRLHVSFVYDVLRQIVT | 0.043 ± 0.21 |
| SLDSNNSVFFVCMYSYRGCS | 0.359 ± 0.32 |
| GPFNKMYAYEIRQTGAFWRQ | -0.098 ± 0.79 |
